Reference: patent US7648964B2, “Use of lacritin in promoting ocular cell survival” (University of Virginia Patent Foundation, priority 2004, dated 2010)

Experiments:
[1] = system: MUC16; assay: MUC16 blot of human corneal epithelial cells; format: cell-based; details: 10 nM
Description: MUC16 is an important mucin on the ocular surface. Mucin contributes to the tear film, is important for wetting the ocular surface, and is reduced in Sjogren's syndrome patients. […] Cells were blotted for MUC16.

[2] = ECM binding ELISA; details: 0-30 nM lacritin
Method: (§1) Binding studies were carried out in 96 well plates coated with 10 μg/well of collagen IV, laminin-1, entactin/nidogen-1, collagen I, fibronectin, vitronectin, EGF, heparin or BMS. Wells were washed, blocked (PBS-T), incubated with 0-30 nM lacritin (in PBS-T containing 1% BSA) for 1 hr (4° C.), washed and detected with anti-lacritin antibody (1/1000) by ELISA.

[3] = system: collagen IV; assay: ECM binding ELISA; details: 0-30 nM lacritin
Method: as §1

[4] = molecular target: EGF (Homo sapiens, UniProt P01133); assay: ECM binding ELISA; details: 0-30 nM lacritin
Chain of EGF (P01133 971-1023 limits assumed, species assumed): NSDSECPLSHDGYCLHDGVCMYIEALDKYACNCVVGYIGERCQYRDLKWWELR
Method: as §1

[5] = molecular target: T1, vitronectin (Homo sapiens, UniProt P04004); assay: ECM binding ELISA; details: 0-30 nM lacritin
T1 sequence (P04004 20-478): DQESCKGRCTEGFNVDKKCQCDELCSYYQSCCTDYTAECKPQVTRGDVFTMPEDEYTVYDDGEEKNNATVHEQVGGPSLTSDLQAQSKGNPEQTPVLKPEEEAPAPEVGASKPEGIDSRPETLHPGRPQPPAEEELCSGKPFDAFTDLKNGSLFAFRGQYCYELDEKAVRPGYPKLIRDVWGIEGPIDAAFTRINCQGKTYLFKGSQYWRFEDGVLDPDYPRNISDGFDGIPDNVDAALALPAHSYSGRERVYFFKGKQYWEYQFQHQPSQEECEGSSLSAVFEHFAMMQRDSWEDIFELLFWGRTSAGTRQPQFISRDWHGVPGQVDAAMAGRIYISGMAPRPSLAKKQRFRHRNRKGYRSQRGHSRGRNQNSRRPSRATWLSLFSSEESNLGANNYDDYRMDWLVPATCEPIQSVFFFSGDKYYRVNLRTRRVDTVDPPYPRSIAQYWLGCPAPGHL
Method: as §1

[6] = system: laminin-1; assay: ECM binding ELISA; details: 0-30 nM lacritin
Method: as §1

[7] = molecular target: T2, nidogen/entactin (Homo sapiens, UniProt P14543); assay: ECM binding ELISA; details: 0-30 nM lacritin
T2 sequence (P14543 29-1247): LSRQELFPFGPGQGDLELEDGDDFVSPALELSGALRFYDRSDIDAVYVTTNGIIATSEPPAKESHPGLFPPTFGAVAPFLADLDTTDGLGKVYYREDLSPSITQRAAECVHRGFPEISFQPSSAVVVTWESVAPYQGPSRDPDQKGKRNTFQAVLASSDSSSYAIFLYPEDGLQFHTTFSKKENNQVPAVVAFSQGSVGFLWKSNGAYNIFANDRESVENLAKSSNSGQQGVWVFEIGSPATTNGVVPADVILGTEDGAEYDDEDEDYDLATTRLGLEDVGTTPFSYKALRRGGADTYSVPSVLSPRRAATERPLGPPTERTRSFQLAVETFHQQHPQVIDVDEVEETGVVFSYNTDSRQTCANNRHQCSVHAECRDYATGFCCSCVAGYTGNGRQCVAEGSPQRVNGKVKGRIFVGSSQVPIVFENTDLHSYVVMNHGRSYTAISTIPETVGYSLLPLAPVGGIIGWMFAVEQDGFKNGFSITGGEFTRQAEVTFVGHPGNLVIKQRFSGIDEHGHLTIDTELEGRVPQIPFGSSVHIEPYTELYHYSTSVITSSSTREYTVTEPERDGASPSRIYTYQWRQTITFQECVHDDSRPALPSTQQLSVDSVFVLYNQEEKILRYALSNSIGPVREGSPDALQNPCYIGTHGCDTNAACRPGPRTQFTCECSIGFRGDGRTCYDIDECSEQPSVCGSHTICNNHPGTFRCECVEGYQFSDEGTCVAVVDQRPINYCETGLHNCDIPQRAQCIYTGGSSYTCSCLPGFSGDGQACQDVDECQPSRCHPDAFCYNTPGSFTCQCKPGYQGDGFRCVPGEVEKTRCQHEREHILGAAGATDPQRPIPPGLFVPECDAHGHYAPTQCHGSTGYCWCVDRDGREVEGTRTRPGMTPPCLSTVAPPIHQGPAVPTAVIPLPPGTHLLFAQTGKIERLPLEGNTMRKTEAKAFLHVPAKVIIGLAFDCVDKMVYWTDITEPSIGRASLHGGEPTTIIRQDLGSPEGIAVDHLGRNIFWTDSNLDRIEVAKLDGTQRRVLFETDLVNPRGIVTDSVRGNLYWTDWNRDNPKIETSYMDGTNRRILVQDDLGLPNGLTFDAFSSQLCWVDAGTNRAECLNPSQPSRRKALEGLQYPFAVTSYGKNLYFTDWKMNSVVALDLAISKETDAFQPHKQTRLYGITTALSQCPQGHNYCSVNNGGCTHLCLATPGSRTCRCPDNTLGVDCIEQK
Method: as §1

[8] = molecular target: fibronectin (Homo sapiens, UniProt P02751); assay: ECM binding ELISA; details: 0-30 nM lacritin
Chain of fibronectin (P02751 32-2477, species assumed): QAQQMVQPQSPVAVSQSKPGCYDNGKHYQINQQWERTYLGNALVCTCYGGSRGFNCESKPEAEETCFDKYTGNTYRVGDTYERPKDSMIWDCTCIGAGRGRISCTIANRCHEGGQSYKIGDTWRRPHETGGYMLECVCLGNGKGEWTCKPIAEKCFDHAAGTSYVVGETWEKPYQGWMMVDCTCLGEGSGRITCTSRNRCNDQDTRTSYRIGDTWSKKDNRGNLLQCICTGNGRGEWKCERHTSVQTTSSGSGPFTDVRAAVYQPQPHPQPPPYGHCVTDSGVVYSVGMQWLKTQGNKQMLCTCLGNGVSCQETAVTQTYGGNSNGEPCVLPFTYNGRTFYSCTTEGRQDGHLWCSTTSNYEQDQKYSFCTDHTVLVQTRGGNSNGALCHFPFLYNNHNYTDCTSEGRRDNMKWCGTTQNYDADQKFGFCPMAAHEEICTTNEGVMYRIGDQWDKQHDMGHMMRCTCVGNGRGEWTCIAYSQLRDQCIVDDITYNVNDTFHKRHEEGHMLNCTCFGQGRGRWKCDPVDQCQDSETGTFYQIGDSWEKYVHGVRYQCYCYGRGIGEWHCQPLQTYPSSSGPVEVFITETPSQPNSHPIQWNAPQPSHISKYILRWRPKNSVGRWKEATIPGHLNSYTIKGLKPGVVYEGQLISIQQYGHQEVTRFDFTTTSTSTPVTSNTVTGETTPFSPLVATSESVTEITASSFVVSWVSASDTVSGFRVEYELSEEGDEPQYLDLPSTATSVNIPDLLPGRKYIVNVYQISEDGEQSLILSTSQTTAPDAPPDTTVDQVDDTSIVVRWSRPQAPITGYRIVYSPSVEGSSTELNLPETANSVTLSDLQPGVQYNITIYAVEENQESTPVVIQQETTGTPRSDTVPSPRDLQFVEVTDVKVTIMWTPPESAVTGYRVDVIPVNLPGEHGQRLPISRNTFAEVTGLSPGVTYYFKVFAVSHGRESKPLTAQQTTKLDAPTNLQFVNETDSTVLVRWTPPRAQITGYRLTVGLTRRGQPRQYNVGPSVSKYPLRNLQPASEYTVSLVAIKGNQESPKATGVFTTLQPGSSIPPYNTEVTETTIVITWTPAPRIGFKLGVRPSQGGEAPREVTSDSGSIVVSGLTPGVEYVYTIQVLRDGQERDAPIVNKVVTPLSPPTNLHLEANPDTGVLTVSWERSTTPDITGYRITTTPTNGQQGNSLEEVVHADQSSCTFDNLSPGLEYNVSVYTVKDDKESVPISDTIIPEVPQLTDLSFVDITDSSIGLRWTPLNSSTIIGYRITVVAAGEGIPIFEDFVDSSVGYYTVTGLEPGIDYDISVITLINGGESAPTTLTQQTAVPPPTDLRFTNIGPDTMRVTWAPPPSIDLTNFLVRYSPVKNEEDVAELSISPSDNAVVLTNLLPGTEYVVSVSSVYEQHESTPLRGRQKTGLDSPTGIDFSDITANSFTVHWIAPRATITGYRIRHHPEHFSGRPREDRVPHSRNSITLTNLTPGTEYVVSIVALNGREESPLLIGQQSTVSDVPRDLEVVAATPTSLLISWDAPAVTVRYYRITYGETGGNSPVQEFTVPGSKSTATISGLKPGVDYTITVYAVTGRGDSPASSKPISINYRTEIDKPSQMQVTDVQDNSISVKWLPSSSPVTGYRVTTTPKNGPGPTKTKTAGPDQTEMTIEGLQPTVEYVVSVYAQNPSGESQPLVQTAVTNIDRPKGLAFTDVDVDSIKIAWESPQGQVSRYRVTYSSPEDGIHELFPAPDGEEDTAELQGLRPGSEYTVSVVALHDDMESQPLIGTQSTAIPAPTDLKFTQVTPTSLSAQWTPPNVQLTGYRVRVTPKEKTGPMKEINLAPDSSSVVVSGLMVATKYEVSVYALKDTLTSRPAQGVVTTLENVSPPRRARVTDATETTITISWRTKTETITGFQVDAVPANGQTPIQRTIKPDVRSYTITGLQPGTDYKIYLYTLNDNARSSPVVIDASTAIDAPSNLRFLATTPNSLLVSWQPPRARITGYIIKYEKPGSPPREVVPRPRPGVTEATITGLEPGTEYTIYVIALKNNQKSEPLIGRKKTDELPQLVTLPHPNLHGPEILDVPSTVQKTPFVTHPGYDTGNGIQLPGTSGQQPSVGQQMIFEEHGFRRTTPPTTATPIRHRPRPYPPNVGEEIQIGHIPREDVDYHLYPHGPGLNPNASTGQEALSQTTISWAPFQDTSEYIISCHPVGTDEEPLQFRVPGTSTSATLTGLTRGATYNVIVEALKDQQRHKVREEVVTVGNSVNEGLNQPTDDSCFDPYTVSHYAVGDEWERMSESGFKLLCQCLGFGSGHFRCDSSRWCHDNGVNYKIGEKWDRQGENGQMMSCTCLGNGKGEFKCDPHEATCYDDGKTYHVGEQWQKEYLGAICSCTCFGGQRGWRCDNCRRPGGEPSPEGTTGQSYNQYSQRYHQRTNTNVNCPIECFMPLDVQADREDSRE
Method: as §1

[9] = molecular target: collagen I (Homo sapiens, UniProt P02452+P08123); assay: ECM binding ELISA; details: 0-30 nM lacritin
Chain of collagen I (P02452 162-1218 limits assumed): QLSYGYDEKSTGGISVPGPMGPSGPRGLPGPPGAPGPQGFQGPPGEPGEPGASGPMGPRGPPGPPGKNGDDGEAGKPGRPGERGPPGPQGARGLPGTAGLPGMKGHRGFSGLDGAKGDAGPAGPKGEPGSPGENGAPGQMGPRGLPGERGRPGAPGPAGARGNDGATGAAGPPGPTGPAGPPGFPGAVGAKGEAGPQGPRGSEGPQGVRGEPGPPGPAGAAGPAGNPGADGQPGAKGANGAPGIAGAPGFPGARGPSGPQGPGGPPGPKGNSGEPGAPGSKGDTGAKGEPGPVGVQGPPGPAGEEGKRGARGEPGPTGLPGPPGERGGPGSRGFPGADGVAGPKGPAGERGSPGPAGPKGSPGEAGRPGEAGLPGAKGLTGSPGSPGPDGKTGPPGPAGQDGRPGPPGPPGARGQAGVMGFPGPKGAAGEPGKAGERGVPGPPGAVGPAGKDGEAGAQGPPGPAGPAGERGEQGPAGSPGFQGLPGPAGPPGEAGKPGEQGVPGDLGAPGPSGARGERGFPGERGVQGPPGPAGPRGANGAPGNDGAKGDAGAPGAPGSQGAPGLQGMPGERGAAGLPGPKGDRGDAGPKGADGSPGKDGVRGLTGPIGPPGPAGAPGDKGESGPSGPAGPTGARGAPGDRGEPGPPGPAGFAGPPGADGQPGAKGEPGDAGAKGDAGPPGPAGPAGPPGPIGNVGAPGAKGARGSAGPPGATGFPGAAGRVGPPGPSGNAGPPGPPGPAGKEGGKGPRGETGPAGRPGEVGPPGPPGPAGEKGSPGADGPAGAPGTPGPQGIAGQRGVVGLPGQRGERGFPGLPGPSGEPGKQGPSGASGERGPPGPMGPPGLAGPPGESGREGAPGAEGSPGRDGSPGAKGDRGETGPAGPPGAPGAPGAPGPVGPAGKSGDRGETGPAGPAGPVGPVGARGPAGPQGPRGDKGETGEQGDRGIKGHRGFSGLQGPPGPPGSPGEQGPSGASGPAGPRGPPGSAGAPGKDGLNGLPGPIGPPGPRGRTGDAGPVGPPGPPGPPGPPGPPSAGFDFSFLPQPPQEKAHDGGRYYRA
Chain of collagen I (P08123 80-1119 limits assumed): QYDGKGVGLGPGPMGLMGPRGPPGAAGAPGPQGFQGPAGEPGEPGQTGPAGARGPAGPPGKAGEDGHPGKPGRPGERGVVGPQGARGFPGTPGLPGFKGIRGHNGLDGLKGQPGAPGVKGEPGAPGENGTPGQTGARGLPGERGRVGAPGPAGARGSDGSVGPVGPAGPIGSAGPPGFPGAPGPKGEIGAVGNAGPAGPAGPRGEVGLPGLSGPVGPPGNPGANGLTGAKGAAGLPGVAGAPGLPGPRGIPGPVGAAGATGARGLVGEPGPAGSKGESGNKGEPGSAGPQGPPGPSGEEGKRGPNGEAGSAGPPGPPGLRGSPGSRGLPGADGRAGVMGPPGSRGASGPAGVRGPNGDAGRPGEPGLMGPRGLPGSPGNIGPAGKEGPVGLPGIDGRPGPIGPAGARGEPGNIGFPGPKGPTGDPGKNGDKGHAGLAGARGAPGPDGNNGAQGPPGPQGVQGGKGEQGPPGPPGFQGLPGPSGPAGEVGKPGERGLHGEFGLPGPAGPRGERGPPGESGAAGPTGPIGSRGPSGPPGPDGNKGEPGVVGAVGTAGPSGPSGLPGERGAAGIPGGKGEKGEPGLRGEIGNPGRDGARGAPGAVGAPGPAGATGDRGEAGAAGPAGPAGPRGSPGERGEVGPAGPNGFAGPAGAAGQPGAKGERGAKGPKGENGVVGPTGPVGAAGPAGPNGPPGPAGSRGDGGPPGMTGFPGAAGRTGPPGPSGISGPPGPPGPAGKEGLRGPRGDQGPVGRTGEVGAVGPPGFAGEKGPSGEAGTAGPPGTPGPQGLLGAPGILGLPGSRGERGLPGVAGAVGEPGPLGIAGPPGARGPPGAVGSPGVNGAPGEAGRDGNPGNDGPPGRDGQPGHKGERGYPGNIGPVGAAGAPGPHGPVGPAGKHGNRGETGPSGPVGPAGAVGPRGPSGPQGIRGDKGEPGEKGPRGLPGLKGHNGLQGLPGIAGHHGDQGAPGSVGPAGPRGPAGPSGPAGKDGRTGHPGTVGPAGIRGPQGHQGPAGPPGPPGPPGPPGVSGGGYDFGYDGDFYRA
Method: as §1

B1: lacritin: recombinant human lacritin from E. coli; mature 119 residue fragment (SEQ ID NO:10) of native lacritin SEQ ID NO:4 (protein, listed as Homo sapiens)
chain: EDASSDSTGADPAQEAGTSKPNEEISGPAEPASPPETTTTAQETSAAAVQGTAKVTSSRQELNPLKSIVEKSILLTEQALAKAGKGMHGGVPGGKQFIENGSEFAQKLLKKFSLLKPWA
[1]
  MUC16 secretion: greatly enhanced
[2]
  binding to heparin: No binding
[3]
  binding to collagen IV: strong basement membrane binding
[4]
  binding to EGF: No binding
[5]
  binding to vitronectin: remarkable avidity
[6]
  binding to laminin-1: strong basement membrane binding
[7]
  binding to nidogen/entactin: strong basement membrane binding
[8]
  binding to fibronectin: remarkable avidity
[9]
  binding to collagen I: No binding
